Data on four molecules can be found in article PMC9482650, “Quantitative fragmentomics allow affinity mapping of interactomes” (Nature Communications, 2022).

Some targets named below: GRID2IP_1, A4D2P6; AHNAK1, Q09666; GORASP2, Q9H8Y8; MAST2, Q6P0Q8; TJP1_3, Q07157; PICK1, Q9NRD5; LNX1_3, Q8TBB1; Inadl_5, Q8NI35; MAGI2_5, Q86UL8; FRMPD2_2, Q68DX3; FRMPD3, Q5JV73.
Holding throughout (experiment): holdup assay
Common to all, as to set-up: key: below the threshold = too weak to quantify, mostly under pKd 3.1 to 4

Another assay concerns the target T1, DFNB31_3, Q9P202.
T1 sequence (Q9P202 811-907, limits assumed, looked up): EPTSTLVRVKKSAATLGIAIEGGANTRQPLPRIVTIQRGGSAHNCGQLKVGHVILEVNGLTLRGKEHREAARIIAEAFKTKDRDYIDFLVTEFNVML

In a further assay the target is T2, SYNJ2BP, P57105.
T2 sequence (P57105 8-110, limits assumed, looked up): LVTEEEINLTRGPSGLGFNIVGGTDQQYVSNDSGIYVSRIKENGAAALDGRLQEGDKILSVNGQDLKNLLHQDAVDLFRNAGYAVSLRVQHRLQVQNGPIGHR

The target of a further assay is T3, GRIP1_7, Q9Y3R0.
T3 sequence (Q9Y3R0 999-1096, limits assumed, looked up): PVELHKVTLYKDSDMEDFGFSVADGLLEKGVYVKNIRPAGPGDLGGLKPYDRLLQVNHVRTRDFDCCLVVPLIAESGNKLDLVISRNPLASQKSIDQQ

Another assay has as its target T4, SNTG1, Q9NSN8.
T4 sequence (Q9NSN8 52-150, limits assumed, looked up): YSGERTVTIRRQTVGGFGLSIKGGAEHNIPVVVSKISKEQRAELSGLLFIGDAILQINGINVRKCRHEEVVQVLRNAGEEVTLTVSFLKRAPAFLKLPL

The target in a further assay is T5, LIN7C, Q9NUP9.
T5 sequence (Q9NUP9 88-185, limits assumed, looked up): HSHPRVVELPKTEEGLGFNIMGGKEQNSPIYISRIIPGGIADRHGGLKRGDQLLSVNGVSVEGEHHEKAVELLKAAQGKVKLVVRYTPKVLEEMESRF

Another assay addresses T6, GRIP1_4, Q9Y3R0.
T6 sequence (Q9Y3R0 467-571, limits assumed, looked up): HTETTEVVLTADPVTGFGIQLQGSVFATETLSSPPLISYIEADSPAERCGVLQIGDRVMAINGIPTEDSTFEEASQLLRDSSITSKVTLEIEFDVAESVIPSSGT

The next assay has as its target T7, SNTB1, Q13884.
T7 sequence (Q13884 107-205, limits assumed, looked up): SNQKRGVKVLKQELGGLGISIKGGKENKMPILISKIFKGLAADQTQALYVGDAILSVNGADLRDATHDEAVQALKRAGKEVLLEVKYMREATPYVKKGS

Another assay concerns the target T8, PDZD2_2, O15018.
T8 sequence (O15018 329-429, limits assumed, looked up): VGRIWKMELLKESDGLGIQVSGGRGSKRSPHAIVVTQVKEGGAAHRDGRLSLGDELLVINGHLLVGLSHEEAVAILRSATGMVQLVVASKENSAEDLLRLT

Another assay has as its target T9, NHERF3_3, Q5T2W1.
T9 sequence (Q5T2W1 238-333, limits assumed, looked up): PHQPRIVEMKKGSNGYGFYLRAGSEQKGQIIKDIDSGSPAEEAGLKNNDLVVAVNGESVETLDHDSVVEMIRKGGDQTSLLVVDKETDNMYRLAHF

For a further assay, the target named is T10, LIN7A, O14910.
T10 sequence (O14910 103-200, limits assumed, looked up): T5 sequence (Q9NUP9 88-185, limits assumed, looked up) with E13D, I20V, I40V, D42E, Q77K, G78D, K79S, S96A

The target in a further assay is T11, RAPGEF6, Q8TEU7.
T11 sequence (Q8TEU7 525-625, limits assumed, looked up): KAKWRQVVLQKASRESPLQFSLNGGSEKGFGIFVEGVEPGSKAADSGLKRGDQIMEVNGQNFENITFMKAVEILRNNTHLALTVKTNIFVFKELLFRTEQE

Another assay deals with T12, PTPN13_1, Q12923.
T12 sequence (Q12923 1088-1188, limits assumed, looked up): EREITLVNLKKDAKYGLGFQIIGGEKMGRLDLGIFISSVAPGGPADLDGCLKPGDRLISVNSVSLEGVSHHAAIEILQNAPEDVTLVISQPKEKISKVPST

The target of the next assay is T13, MPDZ_5, O75970.
T13 sequence (O75970 695-796, limits assumed, looked up): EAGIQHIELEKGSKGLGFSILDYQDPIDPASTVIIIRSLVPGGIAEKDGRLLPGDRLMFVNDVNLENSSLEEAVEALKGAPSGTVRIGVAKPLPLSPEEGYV

[1] abbreviates: plain residues with an end cap or a label only (N-terminal biotin on a linker: (peg)3).
Setting [2] is: plain residues with an end cap or a label only (N-terminal biotin on a linker: ado-ado).

For orientation: pKd means −log10 of the Kd, conventionally taken in molar units.

Residue numbers refer to the chain shown, from its start.

FRMPD2_2, Q68DX3, sequence (Q68DX3 944-1038): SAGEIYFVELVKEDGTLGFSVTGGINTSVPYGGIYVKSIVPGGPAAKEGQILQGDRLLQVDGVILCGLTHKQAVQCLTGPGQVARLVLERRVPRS
PICK1, Q9NRD5, sequence (Q9NRD5 17-115): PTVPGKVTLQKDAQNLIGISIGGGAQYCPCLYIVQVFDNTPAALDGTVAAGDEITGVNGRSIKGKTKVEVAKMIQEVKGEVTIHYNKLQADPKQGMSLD
MAST2, Q6P0Q8, sequence (Q6P0Q8 1099-1202): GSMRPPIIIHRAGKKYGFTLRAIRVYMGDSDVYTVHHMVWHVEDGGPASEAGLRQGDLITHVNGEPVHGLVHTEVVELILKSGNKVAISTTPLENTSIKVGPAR
AHNAK1, Q09666, sequence (Q09666 4-100): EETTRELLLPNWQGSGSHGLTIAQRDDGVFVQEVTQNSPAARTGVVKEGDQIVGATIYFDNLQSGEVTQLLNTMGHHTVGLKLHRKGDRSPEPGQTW
TJP1_3, Q07157, sequence (Q07157 416-512): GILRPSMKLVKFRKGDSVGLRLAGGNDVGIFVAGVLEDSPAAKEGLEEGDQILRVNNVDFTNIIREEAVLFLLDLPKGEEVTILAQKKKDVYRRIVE
Inadl_5, Q8NI35, sequence (Q8NI35 673-780): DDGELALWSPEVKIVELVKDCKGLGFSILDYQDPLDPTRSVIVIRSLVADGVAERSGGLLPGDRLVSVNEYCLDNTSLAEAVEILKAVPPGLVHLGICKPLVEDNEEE
LNX1_3, Q8TBB1, sequence (Q8TBB1 500-596): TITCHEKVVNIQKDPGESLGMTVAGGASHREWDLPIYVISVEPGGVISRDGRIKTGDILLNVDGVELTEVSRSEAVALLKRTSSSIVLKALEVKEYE
FRMPD3, Q5JV73, sequence (Q5JV73 12-100): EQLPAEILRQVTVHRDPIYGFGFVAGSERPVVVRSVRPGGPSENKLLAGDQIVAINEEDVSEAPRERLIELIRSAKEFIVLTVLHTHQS
GRID2IP_1, A4D2P6, sequence (A4D2P6 1-87): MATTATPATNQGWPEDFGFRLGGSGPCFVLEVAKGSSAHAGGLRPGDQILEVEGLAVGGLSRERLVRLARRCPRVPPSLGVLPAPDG
MAGI2_5, Q86UL8, sequence (Q86UL8 915-1017): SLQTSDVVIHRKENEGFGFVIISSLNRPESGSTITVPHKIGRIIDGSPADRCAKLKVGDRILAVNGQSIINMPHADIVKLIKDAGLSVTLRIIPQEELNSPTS

Regarding YDEPTTTTSVPL [SARS-Cov2-3a, P0DTC3], the negative-log Kd (pKd) entry with GRID2IP_1, A4D2P6 (setting [1]) is “below the threshold”; with DFNB31_3, Q9P202 (setting [1]), “below the threshold”; with AHNAK1, Q09666 (setting [1]), 3.77; with SYNJ2BP, P57105 (setting [1]), “below the threshold”; with GORASP2, Q9H8Y8 (setting [1]) it was “below the threshold”; in the assay with MAST2, Q6P0Q8 (setting [1]), “below the threshold”. The pKd entry with TJP1_3, Q07157 (setting [1]) is listed as “below the threshold”; in the assay with GRIP1_7, Q9Y3R0 (setting [1]) it was “below the threshold”; with SNTG1, Q9NSN8 (setting [1]), “below the threshold”; with LIN7C, Q9NUP9 (setting [1]), “below the threshold”; in the assay with PICK1, Q9NRD5 (setting [1]), “below the threshold”; with GRIP1_4, Q9Y3R0 (setting [1]), “below the threshold”. Besides, the negative-log Kd (pKd) result in the assay with LNX1_3, Q8TBB1 (setting [1]) was “below the threshold”; with SNTB1, Q13884 (setting [1]), “below the threshold”; in the assay with PDZD2_2, O15018 (setting [1]), “below the threshold”; in the assay with Inadl_5, Q8NI35 (setting [1]), “below the threshold”; in the assay with MAGI2_5, Q86UL8 (setting [1]) it was “below the threshold”; with NHERF3_3, Q5T2W1 (setting [1]) it was “below the threshold”. For the same molecule, the pKd entry is listed as “below the threshold” with LIN7A, O14910 (setting [1]); “below the threshold” with FRMPD2_2, Q68DX3 (setting [1]); “below the threshold” in the assay with RAPGEF6, Q8TEU7 (setting [1]); “below the threshold” with FRMPD3, Q5JV73 (setting [1]); “below the threshold” with PTPN13_1, Q12923 (setting [1]); “below the threshold” with MPDZ_5, O75970 (setting [1]).
In the case of RPGFASESKV [ADRB1, P08588], the pKd result with GRID2IP_1, A4D2P6 (setting [2]) is “below the threshold”; in the assay with DFNB31_3, Q9P202 (setting [2]), “below the threshold”; with AHNAK1, Q09666 (setting [2]), “below the threshold”; with SYNJ2BP, P57105 (setting [2]) it was 4.64; with GORASP2, Q9H8Y8 (setting [2]), “below the threshold”; with MAST2, Q6P0Q8 (setting [2]), 5.01. The pKd result was “below the threshold” with TJP1_3, Q07157 (setting [2]); “below the threshold” with GRIP1_7, Q9Y3R0 (setting [2]); 4.59 with SNTG1, Q9NSN8 (setting [2]); “below the threshold” with LIN7C, Q9NUP9 (setting [2]); “below the threshold” with PICK1, Q9NRD5 (setting [2]); “below the threshold” with GRIP1_4, Q9Y3R0 (setting [2]). Further, the pKd entry was “below the threshold” with LNX1_3, Q8TBB1 (setting [2]); 4.35 with SNTB1, Q13884 (setting [2]); 4.2 with PDZD2_2, O15018 (setting [2]); “below the threshold” with Inadl_5, Q8NI35 (setting [2]); “below the threshold” with MAGI2_5, Q86UL8 (setting [2]); “below the threshold” with NHERF3_3, Q5T2W1 (setting [2]). The negative-log Kd (pKd) entry with LIN7A, O14910 (setting [2]) is “below the threshold”; in the assay with FRMPD2_2, Q68DX3 (setting [2]), 3.5; in the assay with RAPGEF6, Q8TEU7 (setting [2]), “below the threshold”; with FRMPD3, Q5JV73 (setting [2]), “below the threshold”; with PTPN13_1, Q12923 (setting [2]) it was “below the threshold”; with MPDZ_5, O75970 (setting [2]), “below the threshold”.
For the molecule GQETPLNTFC [MAP7D2, Q96T17], the negative-log Kd (pKd) entry was “below the threshold” in the assay with GRID2IP_1, A4D2P6 (setting [2]); “below the threshold” in the assay with DFNB31_3, Q9P202 (setting [2]); “below the threshold” with AHNAK1, Q09666 (setting [2]); “below the threshold” with SYNJ2BP, P57105 (setting [2]); “below the threshold” with GORASP2, Q9H8Y8 (setting [2]); 4.21 in the assay with MAST2, Q6P0Q8 (setting [2]). Also, the negative logarithm of the Kd (pKd) entry is listed as “below the threshold” in the assay with TJP1_3, Q07157 (setting [2]); “below the threshold” with GRIP1_7, Q9Y3R0 (setting [2]); “below the threshold” in the assay with SNTG1, Q9NSN8 (setting [2]); “below the threshold” in the assay with LIN7C, Q9NUP9 (setting [2]); “below the threshold” with PICK1, Q9NRD5 (setting [2]); “below the threshold” with GRIP1_4, Q9Y3R0 (setting [2]). Also, the negative logarithm of the Kd (pKd) entry with LNX1_3, Q8TBB1 (setting [2]) was “below the threshold”; with SNTB1, Q13884 (setting [2]), “below the threshold”; in the assay with PDZD2_2, O15018 (setting [2]), 4.03; with Inadl_5, Q8NI35 (setting [2]) it was “below the threshold”; with MAGI2_5, Q86UL8 (setting [2]), “below the threshold”; in the assay with NHERF3_3, Q5T2W1 (setting [2]) it was “below the threshold”. Further, the pKd entry in the assay with LIN7A, O14910 (setting [2]) was “below the threshold”; in the assay with FRMPD2_2, Q68DX3 (setting [2]) it was “below the threshold”; with RAPGEF6, Q8TEU7 (setting [2]) it was “below the threshold”; in the assay with FRMPD3, Q5JV73 (setting [2]), “below the threshold”; in the assay with PTPN13_1, Q12923 (setting [2]), “below the threshold”; in the assay with MPDZ_5, O75970 (setting [2]) it was “below the threshold”.
With RTQSSDSAYV [GJD2, Q9UKL4], the negative-log Kd (pKd) entry with GRID2IP_1, A4D2P6 (setting [2]) is “below the threshold”; in the assay with DFNB31_3, Q9P202 (setting [2]) it was “below the threshold”; with AHNAK1, Q09666 (setting [2]), “below the threshold”; with SYNJ2BP, P57105 (setting [2]), 3.66; with GORASP2, Q9H8Y8 (setting [2]), 3.78; with MAST2, Q6P0Q8 (setting [2]) it was 4.17. Further, the negative logarithm of the Kd (pKd) entry was “below the threshold” in the assay with TJP1_3, Q07157 (setting [2]); “below the threshold” with GRIP1_7, Q9Y3R0 (setting [2]); “below the threshold” in the assay with SNTG1, Q9NSN8 (setting [2]); “below the threshold” with LIN7C, Q9NUP9 (setting [2]); “below the threshold” with PICK1, Q9NRD5 (setting [2]); “below the threshold” in the assay with GRIP1_4, Q9Y3R0 (setting [2]). The pKd in the assay with LNX1_3, Q8TBB1 (setting [2]) was 3.47; with SNTB1, Q13884 (setting [2]), “below the threshold”; with PDZD2_2, O15018 (setting [2]) it was 5.15; in the assay with Inadl_5, Q8NI35 (setting [2]), 3.5; with MAGI2_5, Q86UL8 (setting [2]) it was “below the threshold”; with NHERF3_3, Q5T2W1 (setting [2]) it was “below the threshold”. Further, the negative-log Kd (pKd) entry is “below the threshold” with LIN7A, O14910 (setting [2]); “below the threshold” with FRMPD2_2, Q68DX3 (setting [2]); “below the threshold” in the assay with RAPGEF6, Q8TEU7 (setting [2]); 3.65 with FRMPD3, Q5JV73 (setting [2]); “below the threshold” with PTPN13_1, Q12923 (setting [2]); “below the threshold” with MPDZ_5, O75970 (setting [2]).
